# T1: YFP-SANS_(CEN-PBM) saturated with harmonin NPDZ1.PDZ2 ( | human, UniProt Q495M9 300-461; Q9Y6N9-1 1-301)
# T1 construct: SANS (USH1G), residues 300-461 of UniProt Q495M9; as m40; Harmonin-a1 (USH1C), human, residues 1-301 of UniProt Q9Y6N9-1; as m30; also called ^YFPSANS_(CEN-PBM)+NPDZ1.PDZ2; source: purified E. coli proteins mixed (saturating NPDZ1.PDZ2); not shown: YFP, N-terminal, kept
# T1 sequence (looked up) 1: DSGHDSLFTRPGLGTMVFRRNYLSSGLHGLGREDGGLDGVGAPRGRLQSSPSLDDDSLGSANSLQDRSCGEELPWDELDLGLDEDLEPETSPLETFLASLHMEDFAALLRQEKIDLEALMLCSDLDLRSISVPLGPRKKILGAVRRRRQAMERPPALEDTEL
# T1 sequence (looked up) 2: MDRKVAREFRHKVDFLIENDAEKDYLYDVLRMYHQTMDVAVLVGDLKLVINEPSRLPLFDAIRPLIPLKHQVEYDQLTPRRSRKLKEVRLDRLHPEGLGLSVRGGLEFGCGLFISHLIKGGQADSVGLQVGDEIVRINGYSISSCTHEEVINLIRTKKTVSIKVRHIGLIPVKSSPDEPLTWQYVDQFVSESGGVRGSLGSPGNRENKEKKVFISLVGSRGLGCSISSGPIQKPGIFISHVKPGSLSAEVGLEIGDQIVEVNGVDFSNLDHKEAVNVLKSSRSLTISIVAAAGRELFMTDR
# T2: Myo7a MF2 K2118N (deafness mutant) (human, UniProt Q13402-1 1702-2215, K2118N)
# T2 construct: Myosin 7a, human, MF2, residues 1702-2215 of UniProt Q13402-1, with a deafness missense mutation; source: E. coli, purified similarly as wild type (Histrap, CaptoQ, gel filtration)
# T2 sequence (looked up): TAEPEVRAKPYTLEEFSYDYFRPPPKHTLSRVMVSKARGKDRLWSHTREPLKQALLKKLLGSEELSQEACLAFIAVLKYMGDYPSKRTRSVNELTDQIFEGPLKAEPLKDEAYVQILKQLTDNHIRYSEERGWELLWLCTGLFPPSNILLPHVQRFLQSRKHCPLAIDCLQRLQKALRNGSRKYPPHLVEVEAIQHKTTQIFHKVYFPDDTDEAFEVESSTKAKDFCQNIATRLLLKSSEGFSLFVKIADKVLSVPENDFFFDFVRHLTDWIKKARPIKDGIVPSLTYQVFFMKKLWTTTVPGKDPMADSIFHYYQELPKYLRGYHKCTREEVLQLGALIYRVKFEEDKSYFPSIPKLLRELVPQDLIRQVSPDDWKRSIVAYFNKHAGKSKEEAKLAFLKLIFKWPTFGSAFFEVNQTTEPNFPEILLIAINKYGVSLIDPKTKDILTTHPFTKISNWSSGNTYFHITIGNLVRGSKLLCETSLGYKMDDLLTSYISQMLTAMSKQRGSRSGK
# T3: Myo7a MF2 G1982E (deafness mutant) (human, UniProt Q13402-1 1702-2215, G1982E)
# T3 construct: Myosin 7a, human, MF2, residues 1702-2215 of UniProt Q13402-1, with a deafness missense mutation; source: E. coli, purified similarly as wild type (Histrap, CaptoQ, gel filtration)
# T3 sequence (looked up): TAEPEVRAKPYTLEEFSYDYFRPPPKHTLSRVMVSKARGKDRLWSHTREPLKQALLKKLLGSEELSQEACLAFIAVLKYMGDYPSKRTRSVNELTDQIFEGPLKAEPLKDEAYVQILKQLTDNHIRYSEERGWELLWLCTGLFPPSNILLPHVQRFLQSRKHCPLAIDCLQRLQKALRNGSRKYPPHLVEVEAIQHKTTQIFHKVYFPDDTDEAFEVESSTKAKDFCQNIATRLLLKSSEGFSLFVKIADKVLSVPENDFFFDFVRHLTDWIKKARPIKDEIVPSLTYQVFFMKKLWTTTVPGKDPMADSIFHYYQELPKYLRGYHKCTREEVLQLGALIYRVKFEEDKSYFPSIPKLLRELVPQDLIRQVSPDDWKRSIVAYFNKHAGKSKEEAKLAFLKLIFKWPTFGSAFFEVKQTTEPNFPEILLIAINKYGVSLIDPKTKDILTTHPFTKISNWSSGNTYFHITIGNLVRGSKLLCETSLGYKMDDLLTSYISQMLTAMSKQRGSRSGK
# T4: Myo7a MF2 G1982R (deafness mutant) (human, UniProt Q13402-1 1702-2215, G1982R)
# T4 construct: Myosin 7a, human, MF2, residues 1702-2215 of UniProt Q13402-1, with a deafness missense mutation; source: E. coli, purified similarly as wild type (Histrap, CaptoQ, gel filtration)
# T4 sequence (looked up): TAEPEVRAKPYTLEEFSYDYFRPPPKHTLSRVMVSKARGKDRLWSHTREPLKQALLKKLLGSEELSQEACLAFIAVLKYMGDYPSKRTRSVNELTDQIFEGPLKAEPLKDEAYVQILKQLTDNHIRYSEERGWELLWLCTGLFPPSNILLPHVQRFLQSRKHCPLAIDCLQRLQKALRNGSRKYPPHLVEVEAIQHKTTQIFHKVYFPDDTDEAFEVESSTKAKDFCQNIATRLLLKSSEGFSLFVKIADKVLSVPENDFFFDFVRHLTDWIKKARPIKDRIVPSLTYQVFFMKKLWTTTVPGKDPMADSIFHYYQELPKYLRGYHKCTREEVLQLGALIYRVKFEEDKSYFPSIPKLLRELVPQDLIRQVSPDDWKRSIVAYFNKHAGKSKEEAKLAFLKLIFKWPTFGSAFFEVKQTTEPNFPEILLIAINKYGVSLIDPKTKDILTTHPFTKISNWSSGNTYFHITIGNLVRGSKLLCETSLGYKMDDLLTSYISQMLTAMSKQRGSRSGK
# Columns and labels:
# Conditions in all cases: both partners purified
# [1] = molecular target: T1, YFP-SANS_(CEN-PBM) saturated with …; assay: MST; YFP-fused partner held together with a third protein (saturating concentrations; competition experiments), non-fluorescent protein titrated
# [2] = molecular target: T2, Myo7a MF2 K2118N (deafness mutant); assay: MST; YFP-fused partner constant at 100 nM, non-fluorescent protein titrated (16 two-fold dilutions); 20 mM Hepes pH 7.0, 100 mM NaCl, 1 mM EGTA, 0.5 mM TCEP, 0.05% Tween 20; Monolith NT.115
# [3] = molecular target: T3, Myo7a MF2 G1982E (deafness mutant); assay: as above
# [4] = molecular target: T4, Myo7a MF2 G1982R (deafness mutant); assay: as above
Binder,Kd [1] [µM],Kd [2] [µM],Kd [3] [µM],Kd [4] [µM]
"Harmonin-a PDZ3c (non-fluorescent, as used in MST) (domain or fragment, human, UniProt Q9Y6N9-1 428-552, looked up, Harmonin-a1 (USH1C), human, PDZ3 plus C-terminal peptide, residues 428-552 of UniProt Q9Y6N9-1; The methods say only that samples for ITC or crystallisation were digested with TEV protease; also called PDZ3c (isoA); source: E. coli BL21 (DE3) Rosetta, purified (Glutathione Sepharose 4B, size-exclusion chromatography)) QDFRKYEEGFDPYSMFTPEQIMGKDVRLLRIKKEGSLDLALEGGVDSPIGKVVVSAVYERGAAERHGGIVKGDEIMAINGKIVTDYTLAEAEAALQKAWNQGGDWIDLVVAVCPPKEYDDELTFF",> 100,–,–,–
"YFP-Harmonin-a PDZ3c (domain or fragment, human, UniProt Q9Y6N9-1 428-552, looked up, Harmonin-a1 (USH1C), human, residues 428-552 of UniProt Q9Y6N9-1; also called ^YFPPDZ3c (isoA); source: E. coli BL21 (DE3) Rosetta, purified (Glutathione Sepharose 4B, size-exclusion chromatography)) QDFRKYEEGFDPYSMFTPEQIMGKDVRLLRIKKEGSLDLALEGGVDSPIGKVVVSAVYERGAAERHGGIVKGDEIMAINGKIVTDYTLAEAEAALQKAWNQGGDWIDLVVAVCPPKEYDDELTFF",–,> 60,> 60,> 60

# Reference: publication PMC5493754, “Myosin 7 and its adaptors link cadherins to actin” (Nature Communications, 2017)
